Values after ≈ are worked out from the molar mass of the structure shown. Where two headings read alike, the source gives them in different places. Square brackets hold non-standard residues; d marks the D form. Peptide text beside a SMILES is read from it. Orn(N5-OH,N5-Ac) = CC(=O)N(O)CCC[C@H](N)C(=O)O
Key:
[1] = assay type: physicochemical; details: pH 7.4
Method: Aliquots of 50 µL of ^68Ga-labelled conjugate (~5 µM) were added to 450 µL of phosphate-buffered saline pH 7.4 (PBS) and 500 µL of Octanol into a 1.5 mL Eppendorf tube. The mixture was vigorously shaken for 20 min at 1400 rpm in a standard vortex (MS 3, IKA, Staufen, Germany) and hereafter, 200 µL of each phase removed and measured in a gamma counter (2480 automatic gamma counter Wizard2 3’’, Perkin Elmer, Waltham, MA, USA) LogD was calculated as the ratio of octanol/water phase using Excel. (n = 3, six technical replicates)

[2] = system: A. fumigatus; experiment: Uptake assay of 68Ga-labelled conjugates in A. fumigatus; assay type: cell-based, Aspergillus fumigatus; details: iron-depleted AMM, 45 min, 37 °C
Method: Assays were performed as previously described. Briefly, uptake and competition assays were performed with A. fumigatus in iron-depleted and iron-replete Aspergillus minimal media (AMM), using a 96-well MultiScreen Filter Plates HTS (1 μm glass fiber filter, Merck Millipore, Darmstadt, Germany). Compounds were incubated for 45 min at 37 °C and filters measured in a gamma counter. Competition assays were performed in the same way except for pre-incubation with the iron-containing antifungal conjugates for 15 min, resulting in a competition at the MirB transporter to show specific binding to MirB.

[3] = in vivo; parameters: species or system BALB/c mice; details: mouse, iv; for tissue uptake: female, BALB/c, 0.4 nmol, total radioactivity, Kidney uptake
Method: Stability test and biodistribution were conducted in 4–6 weeks-old female BALB/c mice (in-house breed, ZVTA Innsbruck). ^68Ga-labelled conjugates, dissolved in PBS (Ph. Eur. pH 7.4) and pH adjusted to pH 6.5 with sodium acetate, were injected via lateral tail vein using approximately 0.4 nmol of compound and a volume of 150 µL. For biodistribution, the same procedure was applied except for different time points of 45 and 90 min. Hereafter the animals were euthanized by cervical dislocation and the organs (blood, spleen, pancreas, stomach, liver, kidneys, heart, lung, muscle, femur) were removed and weighed. The activity of the samples was measured in a gamma counter and the results were calculated as a percentage of injected dose per gram tissue (%ID/g).

[4] = system: A. fumigatus (ATCC 46645); assay type: cell-based, Aspergillus fumigatus; details: AMM
Method: (§1) Susceptibility tests were performed according to CLSI guidelines with slight modifications. In brief, 96-well plates (Greiner Bio-One GmbH) were prepared with 100 μL of 2 × AMM (Aspergillus minimal medium) or 0.2 × Potato Dextrose Broth (PDB) containing 3 × 10^4 spores of A. fumigatus (ATCC 46645) per well. An amount of 100μL antifungal, dissolved in water, was added to get a final concentration of 1 × AMM/0.1 × PDB medium and antifungal concentration ranging from 0.031–16 μg/mL.

[5] = system: A. fumigatus (ATCC 46645); assay type: cell-based, Aspergillus fumigatus
Method: as §1

[6] = system: A. fumigatus; parameters: method as in PMID 26956772; details: 24 h, 37 °C, 0.1 × Vogel's medium; cited from earlier work
[7] = system: A. fumigatus; parameters: method as in PMID 31405865; details: RPMI medium, 48 h; cited from earlier work
[8] = Biodistribution Intestine 45 min
[9] = Biodistribution Intestine 90 min
[10] = Biodistribution Pancreas 45 min
[11] = Biodistribution Pancreas 90 min

CC(=O)N[C@@H]1CCCN(O)C(=O)/C=C(/C)CCOC(=O)[C@H](NC(=O)CCC(=O)N[C@H](CCCNC(=N)N)C(=O)N[C@H](CCCCN)C(=O)N[C@H](CCCCN)C(=O)N[C@H](Cc2c[nH]c3ccccc23)C(=O)N[C@H](Cc2ccccc2)C(=O)N[C@H](Cc2c[nH]c3ccccc23)C(N)=O)CCCN(O)C(=O)/C=C(/C)CCOC(=O)[C@H](NC(C)=O)CCCN(O)C(=O)/C=C(/C)CCOC1=O (stereo in doubt) [[^68Ga]Ga-DAFC-D-PAF26, metal not drawn]
logD [1]: -3.35 ± 0.16 | Uptake into A. fumigatus hyphae normalized to uptake of [68Ga]Ga-TAFC [2]: 137% | tissue uptake [3]: 150 %ID/g | tissue uptake at 0.75 h ([3]; Biodistribution Blood 45 min): 1.08 ± 0.12 %ID/g | tissue uptake at 1.5 h ([3]; Biodistribution Blood 90 min): 0.4 ± 0.04 %ID/g | tissue uptake at 0.75 h ([3]; Biodistribution Femur 45 min): 1.47 ± 0.09 %ID/g | tissue uptake at 1.5 h ([3]; Biodistribution Femur 90 min): 1.11 ± 0.16 %ID/g | tissue uptake at 0.75 h ([3]; Biodistribution Heart 45 min): 0.76 ± 0.02 %ID/g | tissue uptake at 1.5 h ([3]; Biodistribution Heart 90 min): 0.6 ± 0.23 %ID/g | tissue uptake at 0.75 h [3, 8]: 0.63 ± 0.02 %ID/g | tissue uptake at 1.5 h [3, 9]: 0.56 ± 0.03 %ID/g | tissue uptake at 0.75 h ([3]; Biodistribution Kidneys 45 min): 150 ± 18 %ID/g | tissue uptake at 1.5 h ([3]; Biodistribution Kidneys 90 min): 158 ± 25.6 %ID/g | tissue uptake at 0.75 h ([3]; Biodistribution Liver 45 min): 20.8 ± 0.58 %ID/g | tissue uptake at 1.5 h ([3]; Biodistribution Liver 90 min): 23 ± 0.89 %ID/g | tissue uptake at 0.75 h ([3]; Biodistribution Lung 45 min): 2.16 ± 0.19 %ID/g | tissue uptake at 1.5 h ([3]; Biodistribution Lung 90 min): 1.31 ± 0.23 %ID/g | tissue uptake at 0.75 h ([3]; Biodistribution Muscle 45 min): 0.42 ± 0.18 %ID/g | tissue uptake at 1.5 h ([3]; Biodistribution Muscle 90 min): 0.28 ± 0.1 %ID/g | tissue uptake at 0.75 h [3, 10]: 0.41 ± 0.02 %ID/g | tissue uptake at 1.5 h [3, 11]: 0.26 ± 0.03 %ID/g | tissue uptake at 0.75 h ([3]; Biodistribution Spleen 45 min): 2.21 ± 0.15 %ID/g | tissue uptake at 1.5 h ([3]; Biodistribution Spleen 90 min): 1.97 ± 0.21 %ID/g | tissue uptake at 0.75 h ([3]; Biodistribution Stomach 45 min): 0.45 ± 0.17 %ID/g | tissue uptake at 1.5 h ([3]; Biodistribution Stomach 90 min): 0.35 ± 0.03 %ID/g

CC(=O)NC1CCCN(O)C(=O)/C=C(/C)CCOC(=O)C(NC(=O)[C@@H](Cc2ccccc2)NC(=O)[C@H](CC(C)C)NC(=O)[C@H](CC(N)=O)NC(C)=O)CCCN(O)C(=O)/C=C(/C)CCOC(=O)C(NC(C)=O)CCCN(O)C(=O)/C=C(/C)CCOC1=O (stereo in doubt) [[^68Ga]Ga-DAFC-NLF-Ac, metal not drawn]
logD [1]: -0.8 ± 0.08 | Uptake into A. fumigatus hyphae normalized to uptake of [68Ga]Ga-TAFC [2]: 35% | tissue uptake [3]: 36 %ID/g | tissue uptake at 0.75 h ([3]; Biodistribution Blood 45 min): 0.46 ± 0.1 %ID/g | tissue uptake at 1.5 h ([3]; Biodistribution Blood 90 min): 0.13 ± 0.1 %ID/g | tissue uptake at 0.75 h ([3]; Biodistribution Femur 45 min): 0.16 ± 0.05 %ID/g | tissue uptake at 1.5 h ([3]; Biodistribution Femur 90 min): 0.59 ± 0.5 %ID/g | tissue uptake at 0.75 h ([3]; Biodistribution Heart 45 min): 0.22 ± 0.02 %ID/g | tissue uptake at 1.5 h ([3]; Biodistribution Heart 90 min): 0.12 ± 0.11 %ID/g | tissue uptake at 0.75 h [3, 8]: 3.09 ± 0.03 %ID/g | tissue uptake at 1.5 h [3, 9]: 4.85 ± 1.78 %ID/g | tissue uptake at 0.75 h ([3]; Biodistribution Kidneys 45 min): 35.7 ± 1.73 %ID/g | tissue uptake at 1.5 h ([3]; Biodistribution Kidneys 90 min): 39.9 ± 2.66 %ID/g | tissue uptake at 0.75 h ([3]; Biodistribution Liver 45 min): 0.85 ± 0.51 %ID/g | tissue uptake at 1.5 h ([3]; Biodistribution Liver 90 min): 0.44 ± 0.05 %ID/g | tissue uptake at 0.75 h ([3]; Biodistribution Lung 45 min): 0.62 ± 0.01 %ID/g | tissue uptake at 1.5 h ([3]; Biodistribution Lung 90 min): 0.32 ± 0.06 %ID/g | tissue uptake at 0.75 h ([3]; Biodistribution Muscle 45 min): 0.18 ± 0.08 %ID/g | tissue uptake at 1.5 h ([3]; Biodistribution Muscle 90 min): 0.17 ± 0.07 %ID/g | tissue uptake at 0.75 h [3, 10]: 0.21 ± 0.06 %ID/g | tissue uptake at 1.5 h [3, 11]: 0.1 ± 0.06 %ID/g | tissue uptake at 0.75 h ([3]; Biodistribution Spleen 45 min): 0.35 ± 0.1 %ID/g | tissue uptake at 1.5 h ([3]; Biodistribution Spleen 90 min): 0.24 ± 0.07 %ID/g | tissue uptake at 0.75 h ([3]; Biodistribution Stomach 45 min): 0.69 ± 0.31 %ID/g | tissue uptake at 1.5 h ([3]; Biodistribution Stomach 90 min): 2.04 ± 0.74 %ID/g

CC(=O)N[C@@H]1CCCN(O)C(=O)/C=C(/C)CCOC(=O)[C@H](NC(=O)CCC(=O)N[C@@H](CC(N)=O)C(=O)N[C@@H](CC(C)C)C(=O)N[C@H](Cc2ccccc2)C(=O)O)CCCN(O)C(=O)/C=C(/C)CCOC(=O)[C@H](NC(C)=O)CCCN(O)C(=O)/C=C(/C)CCOC1=O (stereo in doubt) [[^68Ga]Ga-DAFC-succ-NLF, metal not drawn]
logD [1]: -2.84 ± 0.17 | Uptake into A. fumigatus hyphae normalized to uptake of [68Ga]Ga-TAFC [2]: 13% | tissue uptake at 0.75 h ([3]; Biodistribution Blood 45 min): 0.41 ± 0.14 %ID/g | tissue uptake at 1.5 h ([3]; Biodistribution Blood 90 min): 0.05 ± 0.03 %ID/g | tissue uptake at 0.75 h ([3]; Biodistribution Femur 45 min): 1.76 ± 0.17 %ID/g | tissue uptake at 1.5 h ([3]; Biodistribution Femur 90 min): 0.31 ± 0.13 %ID/g | tissue uptake at 0.75 h ([3]; Biodistribution Heart 45 min): 0.18 ± 0.09 %ID/g | tissue uptake at 1.5 h ([3]; Biodistribution Heart 90 min): 0.05 ± 0.02 %ID/g | tissue uptake at 0.75 h [3, 8]: 0.4 ± 0.1 %ID/g | tissue uptake at 1.5 h [3, 9]: 0.36 ± 0.07 %ID/g | tissue uptake at 0.75 h ([3]; Biodistribution Kidneys 45 min): 3.27 ± 0.61 %ID/g | tissue uptake at 1.5 h ([3]; Biodistribution Kidneys 90 min): 2.93 ± 0.38 %ID/g | tissue uptake at 0.75 h ([3]; Biodistribution Liver 45 min): 0.37 ± 0.07 %ID/g | tissue uptake at 1.5 h ([3]; Biodistribution Liver 90 min): 0.3 ± 0.05 %ID/g | tissue uptake at 0.75 h ([3]; Biodistribution Lung 45 min): 0.61 ± 0.14 %ID/g | tissue uptake at 1.5 h ([3]; Biodistribution Lung 90 min): 0.21 ± 0.05 %ID/g | tissue uptake at 0.75 h ([3]; Biodistribution Muscle 45 min): 0.08 ± 0.01 %ID/g | tissue uptake at 1.5 h ([3]; Biodistribution Muscle 90 min): 0.11 ± 0.14 %ID/g | tissue uptake at 0.75 h [3, 10]: 0.14 ± 0.05 %ID/g | tissue uptake at 1.5 h [3, 11]: 0.06 ± 0.02 %ID/g | tissue uptake at 0.75 h ([3]; Biodistribution Spleen 45 min): 0.23 ± 0.04 %ID/g | tissue uptake at 1.5 h ([3]; Biodistribution Spleen 90 min): 0.19 ± 0.03 %ID/g | tissue uptake at 0.75 h ([3]; Biodistribution Stomach 45 min): 0.19 ± 0.09 %ID/g | tissue uptake at 1.5 h ([3]; Biodistribution Stomach 90 min): 0.11 ± 0.01 %ID/g

N=C(N)NCCC[C@@H](N)C(=O)N[C@H](CCCCN)C(=O)N[C@H](CCCCN)C(=O)N[C@H](Cc1c[nH]c2ccccc12)C(=O)N[C@H](Cc1ccccc1)C(=O)N[C@H](Cc1c[nH]c2ccccc12)C(N)=O [H2N-D-PAF26-NH2] (H-[dR][dK][dK][dW][dF][dW]-NH2)
Antifungal activity (in words) ([4]; 0.031–16 µg/mL tested): no inhibition could be observed | MIC 24 h ([4]; 37 °C, 24 h): >16 µg/mL | MIC 48 h ([4]; 37 °C, 48 h): >16 µg/mL | MIC 24 h ([5]; 0.1 × PDB, 37 °C, 24 h): 8 µg/mL (≈ 8.43 µM) | MIC 48 h ([5]; 0.1 × PDB, 37 °C, 48 h): 8 µg/mL | MIC / growth inhibition ([5]; 0.1 × PDB, incubation time not given): 8 µg/mL (≈ 8.43 µM) | MIC 48 h ([5]; ATCC 46645, 48 h): 8.4 µM | IC50 [6]: 8 µM

CC(=O)N([O-])CCC[C@@H]1NC(=O)[C@H](CCCN([O-])C(C)=O)NC(=O)[C@H](CCCN([O-])C(C)=O)NC(=O)[C@@H](Cc2ccccc2)NC(=O)[C@H](CC(C)C)NC(=O)[C@H](CC(N)=O)NC1=O.[Al+3] [VL-2397] (cyclo(L[dF][Orn(N5-OH,N5-Ac)][Orn(N5-OH,N5-Ac)][Orn(N5-OH,N5-Ac)]N))
MIC [7]: 1 µg/mL

Reference: article PMC7765500, “Siderophore Scaffold as Carrier for Antifungal Peptides in Therapy of Aspergillus fumigatus Infections” (Journal of Fungi, 2020)
